Data on one substance can be found in paper PMC11901700, “A Sweet Almond Globulin Multifunctional Peptide: Identification, In Silico Screening, Restraint Mechanisms to Keap1 and ACE, and Antihypertensive and Ferrous Transport Efficiency” (Nutrients, 2025).

Where no end group is shown, it is not given here.

Data set [1] has as its target T1, ACE (from rabbit lungs) (Oryctolagus cuniculus, UniProt P12822).
T1 construct: ACE (0.1 U, from rabbit lungs, purity > 99.7%, CAS: 9015-82-1) was obtained from Sigma-Aldrich; purchased Sigma-Aldrich (St. Louis, MO, USA); host or cells: rabbit lung tissue
T1 sequence (P12822 34-1310): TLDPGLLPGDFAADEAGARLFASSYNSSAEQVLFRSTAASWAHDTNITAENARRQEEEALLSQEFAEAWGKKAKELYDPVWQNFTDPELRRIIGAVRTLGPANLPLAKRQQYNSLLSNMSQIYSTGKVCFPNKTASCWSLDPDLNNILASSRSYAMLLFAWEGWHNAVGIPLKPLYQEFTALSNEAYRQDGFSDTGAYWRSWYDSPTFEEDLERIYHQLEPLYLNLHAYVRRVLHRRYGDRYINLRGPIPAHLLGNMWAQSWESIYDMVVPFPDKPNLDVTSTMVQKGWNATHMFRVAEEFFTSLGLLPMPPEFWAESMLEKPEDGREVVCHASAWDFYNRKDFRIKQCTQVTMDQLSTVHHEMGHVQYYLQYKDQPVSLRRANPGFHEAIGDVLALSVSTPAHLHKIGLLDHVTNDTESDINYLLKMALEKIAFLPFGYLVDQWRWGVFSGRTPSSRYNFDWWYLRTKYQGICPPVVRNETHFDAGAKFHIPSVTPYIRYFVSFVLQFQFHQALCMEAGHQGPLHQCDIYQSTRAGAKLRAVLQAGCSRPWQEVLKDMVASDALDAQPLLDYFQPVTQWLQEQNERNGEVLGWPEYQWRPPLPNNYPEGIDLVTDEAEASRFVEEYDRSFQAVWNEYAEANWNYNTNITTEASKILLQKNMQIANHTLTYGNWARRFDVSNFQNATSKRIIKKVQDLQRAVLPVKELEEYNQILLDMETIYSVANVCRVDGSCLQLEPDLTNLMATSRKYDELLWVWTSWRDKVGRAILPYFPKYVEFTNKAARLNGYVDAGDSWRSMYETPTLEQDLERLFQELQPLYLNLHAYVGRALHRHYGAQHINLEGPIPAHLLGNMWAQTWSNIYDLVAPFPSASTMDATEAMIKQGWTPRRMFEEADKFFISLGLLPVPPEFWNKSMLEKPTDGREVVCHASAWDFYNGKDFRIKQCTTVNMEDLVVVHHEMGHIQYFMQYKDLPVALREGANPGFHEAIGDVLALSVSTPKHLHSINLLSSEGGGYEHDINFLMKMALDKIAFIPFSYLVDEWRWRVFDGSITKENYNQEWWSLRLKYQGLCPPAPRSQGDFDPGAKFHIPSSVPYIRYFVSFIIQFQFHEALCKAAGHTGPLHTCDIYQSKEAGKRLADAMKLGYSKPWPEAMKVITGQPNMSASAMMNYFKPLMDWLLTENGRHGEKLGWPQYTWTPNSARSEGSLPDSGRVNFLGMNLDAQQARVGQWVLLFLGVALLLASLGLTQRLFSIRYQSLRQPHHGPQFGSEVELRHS
As to the kind of experiment: ACE inhibitory ability (hippuric acid method). In kind it is biochemical. To be noted: hippuric acid method, HHL substrate, absorbance at 228 nm; N = 3; read-out: ACE inhibitory activity (IC50). The source says:
(§1) The hippuric acid method was used to measure the samples’ inhibitory ability towards ACE, following the same procedures as Zheng et al.. The absorbance at 228 nm was the hippuric acid content and represented ACE activity; therefore, the inhibitory ability of samples towards ACE was defined as the percentage of reduction in the absorption at 228 nm between the control and sample groups. Moreover, the ACE inhibitory kinetic of SAGH peptides was investigated by employing a Lineweaver–Burk plot with N-hippuryl-L-histidyl-L-leucine (HHL, 0.13–1.32 mmol/L) as the substrate.
As described by Wu et al., the simulative gastric digestive fluid consisted of sodium chloride (0.18 mol/L), ultrapure water (180 mL), and 0.40 mg/mL of pepsin. The simulation intestinal digestive juice was composed of NaHCO3, ([…]), bile salt (3 g/100 mL), pancreatin (0.35 mg/mL), and 180 mL of ultrapure water. The antihypertensive and antioxidant SAGH peptides (5 mg/mL, 60 mL) were first hydrolyzed using 150 mL of simulative gastric fluid at 37 °C and 140 rpm for 90 min. The mixture was adjusted to pH 7.0, and 180 mL of the simulative intestinal hydrolysis fluid was added and stirred at 37 °C for 2 h. After boiling for 6 min, the mixture was cooled with running water to room temperature. The ACE inhibition capacity and antioxidant ability of the treated SAGH peptides were detected and compared to those of the […] SAGH peptides.

For data set [2], the target named is T1, ACE (from rabbit lungs). As to the kind of experiment: ACE inhibitory kinetics (Lineweaver–Burk plot). In kind it is biochemical. Conditions: HHL 0.13–1.32 mmol/L as substrate, N = 3.
Source text: as §1

A short description of data set [3]: Gastrointestinal stability of peptide–ferrous chelate (ferrous solubility in simulated digestion). The data set is classed as in vitro ADME. The procedure:
Next, the intestinal digestive fluid was added, and digestion was continued at pH 6.8 for 2 h in the EDZF-C002 thermostatic vibrator ([…], 175 rpm).

For data set [4], the system named is Caco-2 cells. Kind of data set: Iron transmembrane absorption across Caco-2 cell monolayers. The data set is classed as in vitro ADME. Conditions: chelate 320 μg/mL, p < 0.05. The procedure: In a 24-well Transwell culture plate, Caco-2 cells (0.75 × 10^6 cells/cm^2) were cultivated using Dulbecco’s modified Eagle’s medium that contained fetal bovine serum (20 g/L), streptomycin (1 μg/μL), penicillin (1 μg/μL), and neomycin (1 μg/μL), and it was refreshed every 48 h. After 12–14 d of incubation at 5% CO2 and 37 °C, the transepithelial electrical resistance was more than 400 Ω·cm^2, and a monolayer Caco-2 cell mode was formed. Afterwards, the medium was removed, and Hank’s Balanced Salt Solution was added. After 30 min of cultivation at 5% CO2 and 37 °C, Hank’s Balanced Salt Solution was removed from the apical side, and SAGH peptide–ferrous chelates (320 μg/mL) were added and then cultivated at 5% CO2 and 37 °C for 150 min. Every 30 min, the ferrous amount of the basolateral-side cultivate solution was measured using the o-phenanthroline method.

The nature of data set [5]: Reducing power (potassium ferricyanide method). To be noted: at 100 μg/mL, absorbance at 700 nm. The data set is classed as physicochemical. The source says: The potassium ferricyanide method was employed to determine the reducing power of the SAGH peptides at the same conditions reported by Wang et al., where the absorbance at 700 nm represented the reducing power.

Regarding “PMYGGGMV–ferrous chelate: chelate prepared by reacting the peptide with FeCl2 at pH 6.5 (also: ferrous iron chelate (reaction with FeCl2))”, the IC50 in data set [1] amounted to 116 µM. Also, the ACE inhibition mode result in data set [2] is reported as “increased the Km value of the Michaelis–Menten kinetic curves but did not change the Vmax”. The “ferrous solubility during gastric digestion” value in data set [3] (0–90 min, simulated gastric fluid pH 1.9, 37 °C, 175 rpm, soluble ferrous by o-phenanthroline every 30 min, N = 3) is reported as “relatively stable”. Also, in data set [3] (91–240 min, intestinal digestive fluid pH 6.8, soluble ferrous by o-phenanthroline, p < 0.05), the “ferrous solubility during intestinal digestion” value is “apparently decreased”. For the same substance, the “ferrous solubility compared with ferrous lactate and ferrous chloride” value in data set [3] (from 90 to 150 min of simulated gastrointestinal digestion, p < 0.05) was “much higher than those of ferrous lactate and ferrous chloride”. The “ability to improve ferrous transmembrane absorption” value in data set [4] (Caco-2 monolayer, Transwell, TEER > 400 Ω·cm2, apical to basolateral, comparators 0.3 mg/mL, HBSS, 37 °C, 5% CO2, 150 min, o-phenanthroline every 30 min, N = 3) is on record as “greater than that of ferrous chloride”. The “iron transport across the Caco-2 monolayer compared with ferrous lactate” value in data set [4] (during 120–150 min, apical to basolateral, ferrous lactate 0.3 mg/mL) is listed as “better”. For the same substance, the “Reducing Power Before Gastrointestinal Digestion” value in data set [5] worked out at 0.179 ± 0.003 e; in data set [5] (listed as PMYGGGMV–ferrous chelates) it was 0.179.

As a reminder, the IC50 is the midpoint of a concentration-inhibition curve.
